One substance from paper doi:10.1101/2021.01.30.428887 can be followed below.

Read-outs that look alike come from different tables or passages of the source.

Holding throughout (assay): quadruple optical trap force measurement
The target of test [1] is Human vimentin C328N with three additional amino acids, GGC, at the C-terminus (human).
Test [2] shares this target. The source holds these as a separate data set.
Test [3] has the same target. The source holds these as a separate data set.
For test [4] the target is unchanged. This is another data set of the same source.
Test [5] shares this target. The source holds these as a separate data set.
For test [6] the target is unchanged. This is another data set of the same source.
The target is the same in test [7]. The source holds these as a separate data set.

The koff is the first-order rate constant of dissociation. A higher koff goes with a short-lived complex. “Human vimentin C328N with three additional amino acids, GGC, at the C-terminus (natural protein)”: the maximal interaction (rupture) force is 57 pN in test [1], 85 pN in test [2] and 112 pN in test [6]. Further, the koff in test [3] is 0.2 s⁻¹; in test [4], 0.08 s⁻¹; in test [5], 0.15 s⁻¹; in test [6] it was 0.18 s⁻¹; in test [7], 0.1 s⁻¹.
